From patent US20100298220A1 come the findings set out here.

For this experiment, the target named is FGF receptor (on NIH 3T3 fibroblasts). Description: cell-based or functional assay.

“wild-type human FGF-1, 140 amino acid form, with an additional amino-terminal six His tag (from UniProt P05230 16-155) (ligand)”: the EC50 of mitogenic activity, NIH 3T3 fibroblast proliferation, in the absence of heparin was determined as 58.4 ng/mL and the EC50 of mitogenic activity, NIH 3T3 fibroblast proliferation, in the presence of 10 U/ml heparin was 0.48 ng/mL.

On to “Ala66→Cys mutant of human FGF-1 (140 amino acid form, His-tagged), oxidized form (from UniProt P05230 16-155) (ligand)”, for which the EC50 of mitogenic activity, NIH 3T3 fibroblast proliferation, in the absence of heparin was determined as 5.43 ng/mL; the EC50 of mitogenic activity, NIH 3T3 fibroblast proliferation, in the presence of 10 U/ml heparin stood at 0.36 ng/mL; the fold increase in mitogenic activity relative to wild-type FGF-1, in the absence of added heparin worked out at 10 fold.
